B1: CPEB3 Ribozyme (parent)
chain: GGGGGCCACAGCAGAAGCGUUCACGUCGCGGCCCCUGUCAGAUUCUGGUGAAUCUGCGAAUUCUGCUGU

Variants of: B1
Test: self-cleavage, relative activity (ratio to wild type); higher = more cleavage; co-transcriptional

Variant	self-cleavage
G41A A51U	0.511
A42C U55C	0.328
A42C U55G	0.285
A42C U55A	0.595
G41C G65A	0.426
G41C G65U	0.327
G41U C45A	0.422
G41U C45G	0.47
A42G A52U	0.718
A42G A52C	0.854
A42C C45A	0.851
A42C C45U	0.937
A42C C45G	0.819
A42C A60U	0.459
A42G A60G	0.85
G41C U67G	0.787
G41C U67A	0.716
G41U A51U	0.609
G41U A51G	0.837
G41U U44G	0.336
G41U U44A	0.339
G41C U61C	0.241
G41C U61G	0.345
A40U G68U	0.877

Variant	self-cleavage
A40U G68A	0.937
A40U G68C	0.876
A42C U53A	1.03
A40G U61G	0.823
A40G U61C	0.48
G41A U49G	0.859
G41A U49C	0.825
A42G U55A	0.543
A42G U55C	0.492
A42G U53A	0.895
A42G U53G	0.801
G41A G56C	0.31
G41A G56U	0.307
G41U U67C	0.872
G41A U46C	0.706
G41A U46A	0.863
A40U U62C	0.351
A40U U62G	0.426
A40U U62A	0.436
G41U A52C	0.431
G41U A52G	0.749
A40U A51C	0.564
A40U A51U	0.61
A40U A51G	0.842

Variant	self-cleavage
A42C G50A	0.952
A42C G50C	0.858
A42C U62C	0.659
A42C U62G	0.757
A42C U62A	0.673
G41A U67G	0.777
G41A U67A	0.756
A40U U44C	0.262
A40U U44G	0.623
A40U A60C	0.235
A40U A60U	0.41
A40U U53C	0.296
A40U U55G	0.839
A40U U55C	0.828
A40U U55A	0.936
G41C G48C	0.869
G41C G48U	0.966
A40U A42U	0.46
A40U A42C	0.419
A40U A42G	0.189
A42C U61C	0.477
A42C U61A	0.742
A40U C54U	0.759
A40U C54G	0.457

Variant	self-cleavage
G41A U62G	0.422
G41A U62A	0.474
G41A U62C	0.383
A42C U43G	0.703
A42C U43A	0.778
G41C C45U	0.501
G41C C45G	0.38
G41C C45A	0.34
A40U U43C	0.485
A40U U43A	0.306
A42G G58C	0.894
A42G G58A	0.951
G41U G56A	0.581
G41U U61C	0.402
G41U U61G	0.314
G41U U61A	0.64
A42C G47A	0.921
A42U A60G	0.74
A42U A60C	0.219
A42U A60U	0.436
G41C A42C	0.26
G41C A42U	0.504
G41U C66A	0.441
G41U C66G	0.428

Variant	self-cleavage
A42C G65A	0.627
G41C A60U	0.366
G41C A60C	0.262
G41C A60G	0.304
A40U G48U	0.936
A40U G48C	0.893
G41U U46A	0.947
G41U U46C	0.752
G41U U46G	0.887
G41A A60U	0.278
G41A A60C	0.295
G41A C63G	0.348
G41A C63U	0.59
G41U A59C	0.412
G41U A59G	0.933
G41A G50A	0.707
A40U C57G	0.366
G41U G58C	0.94
G41U G58A	0.935
G41U G58U	0.939
G41U A60G	0.612
G41U A60U	0.374
G41A U61A	0.463
G41A U61G	0.331

Variant	self-cleavage
G41A C54U	0.961
G41A C54G	0.861
G41C U55C	0.394
G41A A59C	0.358
A40U G50C	0.643
A40U G50A	0.731
G41A U53G	0.566
G41A U53A	0.65
G41U U69G	1.02
G41U U69A	0.995
G41C U62G	0.363
G41C U62C	0.365
A42G C54U	0.799
A42C C63G	0.542
A42C C63A	0.547
A42C G68A	1
A42C G68C	0.963
A42C G68U	1.01
A40U A59G	0.887
A40U A59U	0.459
A42G G56A	0.761
A42G G56C	0.475
G41U U62A	0.506
G41U U62C	0.384

Variant	self-cleavage
G41U C63U	0.691
A40U U61G	0.286
A42G U43C	0.935
A42G U43G	0.565
A42G U43A	0.853
A40G U62C	0.649
G41C G56U	0.369
G41C G56A	0.667
A40U A52G	0.832
A40U C45G	0.744
A40U C45U	0.799
A40U C45A	0.629
A42G U49C	0.901
A42G U49A	0.938
A42G U49G	0.96
G41A G48A	0.989
A42C G56C	0.325
A42C G56U	0.568
A42G G50U	0.887
G41C U44C	0.342
G41C U44A	0.377
G41C U44G	0.317
G41C C63A	0.296

From the RNAGym collection of RNA variant scans (doi:10.7554/elife.80360)
